B1: recombinant fructose-1,6-bisphosphate aldolase 3 from Chlamydomonas reinhardtii (CrFBA3) (enzyme, UniProt Q42690 28-377, looked up)
chain: GKYDEELIKTAGTVASKGRGILAMDESNATCGKRLDSIGVENTEENRRAYRELLVTAPGLGQYISGAILFEETLYQSTASGKKFVDVMKEQNIVPGIKVDKGLVPLSNTNGESWCMGLDGLDKRCAEYYKAGARFAKWRSVVSIPHGPSIIAARDCAYGLARYAAIAQNAGLVPIVEPEVLLDGEHDIDRCLEVQEAIWAETFKYMADNKVMFEGILLKPAMVTPGADCKNKAGPAKVAEYTLKMLRRRVPPAVPGIMFLSGGQSELESTLNLNAMNQSPNPWHVSFSYARALQNTVLKTWQGKPENVQAAQAALLKRAKANSDAQQGKYDATTEGKEAAQGMYEKGYVY

Key:
[1] = biological target: FBA3 in soluble extracts of Chlamydomonas cultures (Chlamydomonas reinhardtii (endogenous in Chlamydomonas cultures)); experiment: SEC
SEC = biological target: the molecule itself; experiment: SEC

Row | Molecule | stoichiometry N [1] | stoichiometry N (SEC)
1 | FBA3 in soluble extracts of Chlamydomonas cultures (enzyme) | 4 | 
2 | B1 |  | 4
